Test [1] deals with DR4G99: Human HLA-DRA1*01:02/DRB1*01:01 ECD with collagen peptide CII_1236-1249 (human). The test is described as follows: MSD ECL; antigen coated; protocol of Example 3.
Test [2] shares this target. The test is described as follows: MSD ECL; antigen coated; mAb 0.2 µg/ml.

B1: DR4B4 (antibody, V domains shown)
VH: QVQLKESGPGLVAPSQSLSITCTISGFSLTSYGVHWVRQPPGKGLEWLVVIWSDGSTTYNSALKSRLSISKDNSKSQVFLKMNSLQTDDTAIYYCASHYGSTLAFASWGHGTLVTVSA
VL: DIQMTQSPASLSASVGETVTIICRASVNIYSYLAWYQQKQGKSPQLLVYNAKILAEGVPSRFSGSGSGTQFSLKINSLQPEDFGSYYCQHHYGPFTFGSGTKLEIK
Consider B1, for which the ECL signal was 697 ECL in test [1] and 15500 ECL in test [2].

The record behind these values is patent publication US20180355043A1.
